{"source": "patent US11325966", "experiment_in_all_cases": "cell-based or functional assay", "key": {"[1]": {"molecular_target": "HIV-1 Env of pseudovirus BJOX025000.01.1 (HIV-1)"}, "[2]": {"molecular_target": "HIV-1 Env of pseudovirus 6240_08_TA5_4622 (HIV-1)"}, "[3]": {"molecular_target": "HIV-1 Env of pseudovirus CNE5 (HIV-1)"}, "[4]": {"molecular_target": "HIV-1 Env of pseudovirus 1012_11_TC21_3257 (HIV-1)"}, "[5]": {"molecular_target": "HIV-1 Env of pseudovirus CNE52 (HIV-1)"}, "[6]": {"molecular_target": "HIV-1 Env of pseudovirus T278-50 (HIV-1)"}, "[7]": {"molecular_target": "HIV-1 Env of pseudovirus T251-18 (HIV-1)"}, "[8]": {"molecular_target": "HIV-1 Env of pseudovirus BJOX028000.10.3 (HIV-1)"}, "[9]": {"molecular_target": "HIV-1 Env of pseudovirus 1054_07_TC4_1499 (HIV-1)"}, "[10]": {"molecular_target": "HIV-1 Env of pseudovirus 191084 B7-19 (HIV-1)"}, "[11]": {"molecular_target": "HIV-1 Env of pseudovirus TRO.11 (HIV-1)"}, "[12]": {"molecular_target": "HIV-1 Env of pseudovirus SC05_8C11_2344 (HIV-1)"}, "[13]": {"molecular_target": "HIV-1 Env of pseudovirus REJO4541.67 (HIV-1)"}, "[14]": {"molecular_target": "HIV-1 Env of pseudovirus CNE19 (HIV-1)"}, "[15]": {"molecular_target": "HIV-1 Env of pseudovirus 231966.c02 (HIV-1)"}, "[16]": {"molecular_target": "HIV-1 Env of pseudovirus CNE58 (HIV-1)"}, "[17]": {"molecular_target": "HIV-1 Env of pseudovirus CNE21 (HIV-1)"}, "[18]": {"molecular_target": "HIV-1 Env of pseudovirus 9004SS_A3_4 (HIV-1)"}, "[19]": {"molecular_target": "HIV-1 Env of pseudovirus X2131_C1_B5 (HIV-1)"}, "[20]": {"molecular_target": "HIV-1 Env of pseudovirus CNE17 (HIV-1)"}, "[21]": {"molecular_target": "HIV-1 Env of pseudovirus AC10.0.29 (HIV-1)"}, "[22]": {"molecular_target": "HIV-1 Env of pseudovirus CAAN5342.A2 (HIV-1)"}, "[23]": {"molecular_target": "HIV-1 Env of pseudovirus T250-4 (HIV-1)"}, "[24]": {"molecular_target": "HIV-1 Env of pseudovirus ZM249M.PL1 (HIV-1)"}, "[25]": {"molecular_target": "HIV-1 Env of pseudovirus Q23.17 (HIV-1)"}, "[26]": {"molecular_target": "HIV-1 Env of pseudovirus ZM197M.PB7 (HIV-1)"}, "[27]": {"molecular_target": "HIV-1 Env of pseudovirus Ce1086_B2 (HIV-1)"}, "[28]": {"molecular_target": "HIV-1 Env of pseudovirus 191821_E6_1 (HIV-1)"}, "[29]": {"molecular_target": "HIV-1 Env of pseudovirus Ce2060_G9 (HIV-1)"}, "[30]": {"molecular_target": "HIV-1 Env of pseudovirus X1193_c1 (HIV-1)"}, "[31]": {"molecular_target": "HIV-1 Env of pseudovirus ZM109F.PB4 (HIV-1)"}, "[32]": {"molecular_target": "HIV-1 Env of pseudovirus ZM233M.PB6 (HIV-1)"}, "[33]": {"molecular_target": "HIV-1 Env of pseudovirus 6041.v3.c23 (HIV-1)"}, "[34]": {"molecular_target": "HIV-1 Env of pseudovirus Du172.17 (HIV-1)"}, "[35]": {"molecular_target": "HIV-1 Env of pseudovirus Du156.12 (HIV-1)"}, "[36]": {"molecular_target": "HIV-1 Env of pseudovirus X2088_c9 (HIV-1)"}, "[37]": {"molecular_target": "HIV-1 Env of pseudovirus 211-9 (HIV-1)"}, "[38]": {"molecular_target": "HIV-1 Env of pseudovirus WEAU_d15_410_787 (HIV-1)"}, "[39]": {"molecular_target": "HIV-1 Env of pseudovirus Ce704809221_1B3 (HIV-1)"}, "[40]": {"molecular_target": "HIV-1 Env of pseudovirus BJOX009000.02.4 (HIV-1)"}}, "data": [{"substance": "PGT121 (antibody)", "values": [{"measurement": "IC50 in TZM-bl assay", "setting": "[1]", "value": "> 10", "unit": "µg/mL"}, {"measurement": "IC80 in TZM-bl assay", "setting": "[1]", "value": "> 10", "unit": "µg/mL"}, {"measurement": "IC50 in TZM-bl assay", "setting": "[2]", "value": 0.068, "unit": "µg/mL"}, {"measurement": "IC80 in TZM-bl assay", "setting": "[2]", "value": 0.231, "unit": "µg/mL"}, {"measurement": "IC50 in TZM-bl assay", "setting": "[3]", "value": "> 10", "unit": "µg/mL"}, {"measurement": "IC80 in TZM-bl assay", "setting": "[3]", "value": "> 10", "unit": "µg/mL"}, {"measurement": "IC50 in TZM-bl assay", "setting": "[4]", "value": 0.008, "unit": "µg/mL"}, {"measurement": "IC80 in TZM-bl assay", "setting": "[4]", "value": 0.034, "unit": "µg/mL"}, {"measurement": "IC50 in TZM-bl assay", "setting": "[5]", "value": 4.91, "unit": "µg/mL"}, {"measurement": "IC80 in TZM-bl assay", "setting": "[5]", "value": "> 10", "unit": "µg/mL"}, {"measurement": "IC50 in TZM-bl assay", "setting": "[6]", "value": "> 10", "unit": "µg/mL"}, {"measurement": "IC80 in TZM-bl assay", "setting": "[6]", "value": "> 10", "unit": "µg/mL"}, {"measurement": "IC50 in TZM-bl assay", "setting": "[7]", "value": 5.18, "unit": "µg/mL"}, {"measurement": "IC80 in TZM-bl assay", "setting": "[7]", "value": "> 10", "unit": "µg/mL"}, {"measurement": "IC50 in TZM-bl assay", "setting": "[8]", "value": "> 10", "unit": "µg/mL"}, {"measurement": "IC80 in TZM-bl assay", "setting": "[8]", "value": "> 10", "unit": "µg/mL"}, {"measurement": "IC50 in TZM-bl assay", "setting": "[9]", "value": 0.041, "unit": "µg/mL"}, {"measurement": "IC80 in TZM-bl assay", "setting": "[9]", "value": 0.299, "unit": "µg/mL"}, {"measurement": "IC50 in TZM-bl assay", "setting": "[10]", "value": 0.038, "unit": "µg/mL"}, {"measurement": "IC80 in TZM-bl assay", "setting": "[10]", "value": 0.118, "unit": "µg/mL"}, {"measurement": "IC80 in TZM-bl assay", "setting": "[11]", "value": 0.037, "unit": "µg/mL"}, {"measurement": "IC50 in TZM-bl assay", "setting": "[12]", "value": 0.03, "unit": "µg/mL"}, {"measurement": "IC80 in TZM-bl assay", "setting": "[12]", "value": 0.108, "unit": "µg/mL"}, {"measurement": "IC50 in TZM-bl assay", "setting": "[13]", "value": "> 10", "unit": "µg/mL"}, {"measurement": "IC80 in TZM-bl assay", "setting": "[13]", "value": "> 10", "unit": "µg/mL"}, {"measurement": "IC80 in TZM-bl assay", "setting": "[14]", "value": 0.083, "unit": "µg/mL"}, {"measurement": "IC50 in TZM-bl assay", "setting": "[15]", "value": "> 10", "unit": "µg/mL"}, {"measurement": "IC80 in TZM-bl assay", "setting": "[15]", "value": "> 10", "unit": "µg/mL"}, {"measurement": "IC50 in TZM-bl assay", "setting": "[16]", "value": "> 10", "unit": "µg/mL"}, {"measurement": "IC80 in TZM-bl assay", "setting": "[16]", "value": "> 10", "unit": "µg/mL"}, {"measurement": "IC50 in TZM-bl assay", "setting": "[17]", "value": 0.009, "unit": "µg/mL"}, {"measurement": "IC80 in TZM-bl assay", "setting": "[17]", "value": 0.031, "unit": "µg/mL"}, {"measurement": "IC50 in TZM-bl assay", "setting": "[18]", "value": 0.006, "unit": "µg/mL"}, {"measurement": "IC80 in TZM-bl assay", "setting": "[19]", "value": 0.037, "unit": "µg/mL"}, {"measurement": "IC50 in TZM-bl assay", "setting": "[20]", "value": 3.96, "unit": "µg/mL"}, {"measurement": "IC80 in TZM-bl assay", "setting": "[20]", "value": "> 10", "unit": "µg/mL"}, {"measurement": "IC50 in TZM-bl assay", "setting": "[21]", "value": 0.019, "unit": "µg/mL"}, {"measurement": "IC80 in TZM-bl assay", "setting": "[21]", "value": 0.06, "unit": "µg/mL"}, {"measurement": "IC50 in TZM-bl assay", "setting": "[22]", "value": 0.008, "unit": "µg/mL"}, {"measurement": "IC80 in TZM-bl assay", "setting": "[22]", "value": 0.026, "unit": "µg/mL"}, {"measurement": "IC50 in TZM-bl assay", "setting": "[23]", "value": 0.003, "unit": "µg/mL"}, {"measurement": "IC80 in TZM-bl assay", "setting": "[23]", "value": 0.009, "unit": "µg/mL"}, {"measurement": "IC50 in TZM-bl assay", "setting": "[24]", "value": "> 10", "unit": "µg/mL"}, {"measurement": "IC80 in TZM-bl assay", "setting": "[24]", "value": "> 10", "unit": "µg/mL"}, {"measurement": "IC50 in TZM-bl assay", "setting": "[25]", "value": 0.005, "unit": "µg/mL"}, {"measurement": "IC80 in TZM-bl assay", "setting": "[25]", "value": 0.017, "unit": "µg/mL"}, {"measurement": "IC50 in TZM-bl assay", "setting": "[26]", "value": "> 10", "unit": "µg/mL"}, {"measurement": "IC80 in TZM-bl assay", "setting": "[26]", "value": "> 10", "unit": "µg/mL"}, {"measurement": "IC50 in TZM-bl assay", "setting": "[27]", "value": 0.003, "unit": "µg/mL"}, {"measurement": "IC50 in TZM-bl assay", "setting": "[28]", "value": "> 10", "unit": "µg/mL"}, {"measurement": "IC80 in TZM-bl assay", "setting": "[28]", "value": "> 10", "unit": "µg/mL"}, {"measurement": "IC50 in TZM-bl assay", "setting": "[29]", "value": "> 10", "unit": "µg/mL"}, {"measurement": "IC80 in TZM-bl assay", "setting": "[29]", "value": "> 10", "unit": "µg/mL"}, {"measurement": "IC80 in TZM-bl assay", "setting": "[30]", "value": 0.088, "unit": "µg/mL"}, {"measurement": "IC50 in TZM-bl assay", "setting": "[31]", "value": 8.92, "unit": "µg/mL"}, {"measurement": "IC80 in TZM-bl assay", "setting": "[31]", "value": "> 10", "unit": "µg/mL"}, {"measurement": "IC50 in TZM-bl assay", "setting": "[32]", "value": 2.81, "unit": "µg/mL"}, {"measurement": "IC80 in TZM-bl assay", "setting": "[32]", "value": "> 10", "unit": "µg/mL"}, {"measurement": "IC50 in TZM-bl assay", "setting": "[33]", "value": "> 10", "unit": "µg/mL"}, {"measurement": "IC80 in TZM-bl assay", "setting": "[33]", "value": "> 10", "unit": "µg/mL"}, {"measurement": "IC50 in TZM-bl assay", "setting": "[34]", "value": 0.062, "unit": "µg/mL"}, {"measurement": "IC80 in TZM-bl assay", "setting": "[34]", "value": 0.531, "unit": "µg/mL"}, {"measurement": "IC50 in TZM-bl assay", "setting": "[35]", "value": 0.006, "unit": "µg/mL"}, {"measurement": "IC80 in TZM-bl assay", "setting": "[35]", "value": 0.019, "unit": "µg/mL"}, {"measurement": "IC50 in TZM-bl assay", "setting": "[36]", "value": 0.007, "unit": "µg/mL"}, {"measurement": "IC50 in TZM-bl assay", "setting": "[37]", "value": 0.866, "unit": "µg/mL"}, {"measurement": "IC80 in TZM-bl assay", "setting": "[37]", "value": 6.63, "unit": "µg/mL"}, {"measurement": "IC50 in TZM-bl assay", "setting": "[38]", "value": 0.017, "unit": "µg/mL"}, {"measurement": "IC80 in TZM-bl assay", "setting": "[38]", "value": 0.062, "unit": "µg/mL"}, {"measurement": "IC50 in TZM-bl assay", "setting": "[39]", "value": 0.043, "unit": "µg/mL"}, {"measurement": "IC80 in TZM-bl assay", "setting": "[39]", "value": 0.285, "unit": "µg/mL"}, {"measurement": "IC50 in TZM-bl assay", "setting": "[40]", "value": 9, "unit": "µg/mL"}, {"measurement": "IC80 in TZM-bl assay", "setting": "[40]", "value": "> 10", "unit": "µg/mL"}]}]}
